Source: the supplement of paper PMC10065799, “High-throughput profiling of sequence recognition by tyrosine kinases and SH2 domains using bacterial peptide display” (eLife, 2023)

Tests used:
c-Src SH2 = test: SH2 binding enrichment of the phosphorylated peptide, bacterial display (enrichment ratio); higher = better substrate or ligand; peptides without Tyr show the background
SHP2-C SH2 = test: as above
Grb2 SH2 = Grb2 SH2 (UniProt P62993); test: as above
EPHB1 = EPHB1 (UniProt P54762); test: phosphorylation enrichment, bacterial display (enrichment ratio); higher = better substrate or ligand; peptides without Tyr show the background
Chain of EPHB1 (P54762 whole entry, looked up): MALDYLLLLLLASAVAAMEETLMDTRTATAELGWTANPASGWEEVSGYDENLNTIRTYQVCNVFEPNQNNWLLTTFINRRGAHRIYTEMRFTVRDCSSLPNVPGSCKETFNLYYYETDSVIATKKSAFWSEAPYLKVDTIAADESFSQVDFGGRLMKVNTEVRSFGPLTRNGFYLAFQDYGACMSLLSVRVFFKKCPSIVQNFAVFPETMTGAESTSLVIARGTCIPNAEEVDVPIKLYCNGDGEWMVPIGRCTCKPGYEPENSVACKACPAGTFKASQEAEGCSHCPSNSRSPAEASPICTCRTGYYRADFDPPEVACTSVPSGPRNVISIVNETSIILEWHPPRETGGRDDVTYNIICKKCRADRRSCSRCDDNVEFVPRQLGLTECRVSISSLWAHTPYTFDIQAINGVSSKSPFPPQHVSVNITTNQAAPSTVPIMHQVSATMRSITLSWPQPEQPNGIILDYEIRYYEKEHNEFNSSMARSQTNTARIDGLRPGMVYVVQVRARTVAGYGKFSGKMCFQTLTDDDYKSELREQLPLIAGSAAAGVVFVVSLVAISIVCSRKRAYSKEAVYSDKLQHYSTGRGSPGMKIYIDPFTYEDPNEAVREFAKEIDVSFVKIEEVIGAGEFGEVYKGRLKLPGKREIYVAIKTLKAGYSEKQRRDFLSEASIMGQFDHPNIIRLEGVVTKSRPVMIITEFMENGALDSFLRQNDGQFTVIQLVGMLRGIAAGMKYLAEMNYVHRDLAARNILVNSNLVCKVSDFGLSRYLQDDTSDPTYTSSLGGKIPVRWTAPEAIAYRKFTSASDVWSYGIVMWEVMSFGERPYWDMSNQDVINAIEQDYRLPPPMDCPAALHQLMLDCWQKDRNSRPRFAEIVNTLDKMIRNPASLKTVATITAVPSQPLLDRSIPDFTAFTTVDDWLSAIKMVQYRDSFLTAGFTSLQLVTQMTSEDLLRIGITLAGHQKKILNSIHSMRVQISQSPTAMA

AncSZ = test: as above
MERTK = MERTK (UniProt Q12866); test: as above
EPHB2 = EPHB2 (UniProt P29323); test: as above
Fes = Fes (UniProt P07332); test: as above
Chain of Fes (P07332 whole entry, looked up): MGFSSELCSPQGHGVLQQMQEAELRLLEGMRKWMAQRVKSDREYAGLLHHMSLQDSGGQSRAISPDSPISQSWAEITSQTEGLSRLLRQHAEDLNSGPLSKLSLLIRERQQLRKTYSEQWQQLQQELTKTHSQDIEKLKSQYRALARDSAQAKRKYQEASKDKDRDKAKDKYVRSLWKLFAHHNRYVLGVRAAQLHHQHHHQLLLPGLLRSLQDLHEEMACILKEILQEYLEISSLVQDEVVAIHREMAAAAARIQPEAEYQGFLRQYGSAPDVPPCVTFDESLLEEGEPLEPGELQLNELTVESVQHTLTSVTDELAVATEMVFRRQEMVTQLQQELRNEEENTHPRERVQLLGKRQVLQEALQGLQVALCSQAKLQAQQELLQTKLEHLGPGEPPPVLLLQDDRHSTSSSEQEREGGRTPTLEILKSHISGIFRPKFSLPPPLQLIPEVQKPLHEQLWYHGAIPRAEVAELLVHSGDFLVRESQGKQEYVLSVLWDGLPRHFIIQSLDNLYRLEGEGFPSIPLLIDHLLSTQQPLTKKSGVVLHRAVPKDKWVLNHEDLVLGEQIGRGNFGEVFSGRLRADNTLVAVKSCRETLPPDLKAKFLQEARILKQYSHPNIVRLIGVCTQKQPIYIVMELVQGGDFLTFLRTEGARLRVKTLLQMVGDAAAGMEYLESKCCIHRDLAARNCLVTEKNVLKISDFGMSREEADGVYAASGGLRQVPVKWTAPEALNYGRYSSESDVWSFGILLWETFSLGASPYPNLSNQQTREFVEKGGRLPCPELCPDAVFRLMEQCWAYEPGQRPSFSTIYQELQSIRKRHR

Fer (mouse) = test: as above
FGFR1 = FGFR1 (UniProt P11362); test: as above
Hck = Hck (UniProt P08631); test: as above
Chain of Hck (P08631 whole entry, looked up): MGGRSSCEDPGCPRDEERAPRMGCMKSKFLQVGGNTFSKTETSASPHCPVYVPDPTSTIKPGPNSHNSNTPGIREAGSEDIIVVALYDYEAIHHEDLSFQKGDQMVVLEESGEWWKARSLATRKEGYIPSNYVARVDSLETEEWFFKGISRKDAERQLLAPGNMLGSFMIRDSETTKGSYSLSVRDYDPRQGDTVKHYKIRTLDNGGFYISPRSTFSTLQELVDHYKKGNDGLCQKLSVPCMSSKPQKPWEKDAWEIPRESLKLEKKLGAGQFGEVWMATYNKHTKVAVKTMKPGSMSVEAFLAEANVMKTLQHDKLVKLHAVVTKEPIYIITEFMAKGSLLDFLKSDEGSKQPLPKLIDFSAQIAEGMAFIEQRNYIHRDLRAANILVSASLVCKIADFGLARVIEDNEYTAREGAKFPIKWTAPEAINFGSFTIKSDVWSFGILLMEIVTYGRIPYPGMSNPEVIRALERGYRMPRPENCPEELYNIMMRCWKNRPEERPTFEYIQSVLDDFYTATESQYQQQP

Fyn = Fyn (UniProt P06241); test: as above
Chain of Fyn (P06241 whole entry, looked up): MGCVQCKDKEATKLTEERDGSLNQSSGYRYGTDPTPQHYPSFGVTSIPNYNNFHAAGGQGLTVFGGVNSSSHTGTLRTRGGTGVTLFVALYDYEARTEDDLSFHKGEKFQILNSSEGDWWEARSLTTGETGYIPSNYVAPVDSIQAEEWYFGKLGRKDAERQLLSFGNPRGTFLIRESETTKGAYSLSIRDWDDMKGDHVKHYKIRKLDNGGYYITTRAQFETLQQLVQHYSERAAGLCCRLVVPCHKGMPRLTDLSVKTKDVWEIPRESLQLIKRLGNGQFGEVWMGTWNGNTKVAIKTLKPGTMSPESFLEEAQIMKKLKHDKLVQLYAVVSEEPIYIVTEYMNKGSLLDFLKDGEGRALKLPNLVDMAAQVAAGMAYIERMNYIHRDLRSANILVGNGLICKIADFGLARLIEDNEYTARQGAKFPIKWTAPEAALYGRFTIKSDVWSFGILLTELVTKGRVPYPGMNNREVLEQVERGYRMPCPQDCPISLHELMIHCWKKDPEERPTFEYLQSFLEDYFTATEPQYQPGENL

FGFR3 = FGFR3 (UniProt P22607); test: as above
Chain of FGFR3 (P22607 whole entry, looked up): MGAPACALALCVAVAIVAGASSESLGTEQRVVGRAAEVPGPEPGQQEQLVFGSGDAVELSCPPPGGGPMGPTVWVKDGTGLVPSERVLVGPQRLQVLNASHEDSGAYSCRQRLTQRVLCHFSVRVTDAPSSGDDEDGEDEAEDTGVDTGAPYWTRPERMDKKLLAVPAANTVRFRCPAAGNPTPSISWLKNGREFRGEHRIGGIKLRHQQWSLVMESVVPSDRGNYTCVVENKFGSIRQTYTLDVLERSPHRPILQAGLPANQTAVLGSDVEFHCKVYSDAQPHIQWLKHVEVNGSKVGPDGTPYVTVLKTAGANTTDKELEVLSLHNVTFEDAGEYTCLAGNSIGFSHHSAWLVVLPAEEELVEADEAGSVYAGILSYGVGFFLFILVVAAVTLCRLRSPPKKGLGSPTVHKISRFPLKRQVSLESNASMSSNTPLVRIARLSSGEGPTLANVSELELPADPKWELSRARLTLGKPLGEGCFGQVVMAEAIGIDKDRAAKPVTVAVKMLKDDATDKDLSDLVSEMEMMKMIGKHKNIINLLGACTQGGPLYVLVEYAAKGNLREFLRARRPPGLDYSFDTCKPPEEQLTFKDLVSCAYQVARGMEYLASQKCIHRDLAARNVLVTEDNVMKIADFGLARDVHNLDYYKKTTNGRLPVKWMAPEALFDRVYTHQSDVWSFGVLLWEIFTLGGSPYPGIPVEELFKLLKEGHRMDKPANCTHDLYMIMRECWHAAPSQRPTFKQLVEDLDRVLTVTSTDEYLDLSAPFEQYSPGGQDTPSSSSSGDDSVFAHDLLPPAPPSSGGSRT

c-Src = test: as above
c-Abl (mouse) = test: as above
Jak2 = Jak2 (UniProt O60674); test: as above
Chain of Jak2 (O60674 whole entry, looked up, the tested form may be a part): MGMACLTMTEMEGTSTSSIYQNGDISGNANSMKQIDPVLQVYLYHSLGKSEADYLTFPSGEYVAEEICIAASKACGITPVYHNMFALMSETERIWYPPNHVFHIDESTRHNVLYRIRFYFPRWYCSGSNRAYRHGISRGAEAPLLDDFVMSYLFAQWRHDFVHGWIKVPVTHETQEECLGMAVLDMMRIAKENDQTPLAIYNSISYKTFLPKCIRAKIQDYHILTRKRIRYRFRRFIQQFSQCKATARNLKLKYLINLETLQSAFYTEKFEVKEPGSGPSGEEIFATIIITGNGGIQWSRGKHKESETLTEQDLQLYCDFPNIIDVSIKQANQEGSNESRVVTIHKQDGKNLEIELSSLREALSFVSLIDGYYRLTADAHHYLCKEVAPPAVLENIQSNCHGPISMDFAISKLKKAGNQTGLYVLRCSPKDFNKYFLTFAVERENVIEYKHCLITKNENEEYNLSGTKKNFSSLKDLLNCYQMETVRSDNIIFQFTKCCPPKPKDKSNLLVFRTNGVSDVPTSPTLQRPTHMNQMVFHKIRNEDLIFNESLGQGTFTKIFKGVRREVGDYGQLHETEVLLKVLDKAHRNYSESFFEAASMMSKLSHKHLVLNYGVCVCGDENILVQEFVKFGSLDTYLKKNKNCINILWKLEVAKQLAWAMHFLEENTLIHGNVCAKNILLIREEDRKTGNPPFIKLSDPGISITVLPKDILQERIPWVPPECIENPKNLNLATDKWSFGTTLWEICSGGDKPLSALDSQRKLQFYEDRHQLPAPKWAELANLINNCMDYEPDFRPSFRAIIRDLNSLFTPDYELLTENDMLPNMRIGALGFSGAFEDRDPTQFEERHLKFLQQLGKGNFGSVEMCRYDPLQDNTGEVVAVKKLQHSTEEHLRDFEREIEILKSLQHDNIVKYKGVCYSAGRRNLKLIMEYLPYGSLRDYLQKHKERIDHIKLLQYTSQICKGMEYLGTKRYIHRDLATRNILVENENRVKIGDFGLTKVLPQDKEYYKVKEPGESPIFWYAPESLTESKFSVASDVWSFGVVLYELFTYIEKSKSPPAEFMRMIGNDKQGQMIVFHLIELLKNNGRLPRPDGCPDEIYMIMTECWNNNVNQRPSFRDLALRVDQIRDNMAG
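Throughout, for SH2 binding enrichment of the phosphorylated peptide, bacterial display: peptide library displayed on the E. coli surface as eCPX fusions, selected cells deep-sequenced, score is each peptide's frequency after selection divided by its frequency in the input.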
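Throughout, for phosphorylation enrichment, bacterial display: 11-residue human phosphosite peptides and single-mutation variants displayed on the E. coli surface, counted by deep sequencing, each peptide's frequency after selection divided by its frequency in the unselected input library; frequency after pTyr selection over input frequency; kinase dosed for 20-30% of maximal phosphorylation in three min.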

Chain of Grb2 SH2 (P62993 whole entry, looked up): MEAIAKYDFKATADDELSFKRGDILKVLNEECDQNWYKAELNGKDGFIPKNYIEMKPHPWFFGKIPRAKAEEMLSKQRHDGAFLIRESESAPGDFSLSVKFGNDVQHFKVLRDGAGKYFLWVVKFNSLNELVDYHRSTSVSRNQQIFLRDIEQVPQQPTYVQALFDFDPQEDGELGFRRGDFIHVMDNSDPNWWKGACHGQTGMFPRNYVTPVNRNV

Sequence	SH2 binding enrichment (c-Src SH2)	SH2 binding enrichment (SHP2-C SH2)	SH2 binding enrichment (Grb2 SH2)	phosphorylation enrichment (EPHB1)	phosphorylation enrichment (AncSZ)	phosphorylation enrichment (MERTK)	phosphorylation enrichment (EPHB2)	phosphorylation enrichment (Fes)	phosphorylation enrichment (Fer (mouse))	phosphorylation enrichment (FGFR1)	phosphorylation enrichment (Hck)	phosphorylation enrichment (Fyn)	phosphorylation enrichment (FGFR3)	phosphorylation enrichment (c-Src)	phosphorylation enrichment (c-Abl (mouse))	phosphorylation enrichment (Jak2)
ETELPYQELQG [TYROBP_Y91_S89L]	0.84	0.504	0.727	0.535	1.58	0.566	0.58	1.18	0.997	1.65	0.941	0.737	1.5	2.5	0.872	1.02
EVKEAYMGSVL [ACAT1_Y90_N93S]	0.452	0.671	0.883	0.485	0.841	0.463	0.532	0.995	0.398	0.407	0.447	0.489	0.527	0.592	0.744	0.83
EWLRRYLENGK [HLA-A_Y195]	0.522	0.757	0.932	0.386	0.691	0.328	0.456	0.809	0.36	0.42	0.387	0.346	0.498	0.346	0.581	0.661
EWRSPYGLTPR [GRIN3B_Y601]	0.645	0.766	1.3	0.413	0.569	0.484	0.473	0.636	0.434	0.403	0.474	0.657	0.442	1.28	0.486	0.459
EYFDGYWGYSV [ITGA2B_Y265]	1.94	0.578	0.999	3.88	3.58	2.87	9.3	1.42	1.4	14.6	5.55	6.24	13.7	7.52	4.7	12.3
EYKDAYKFAAD [BRDT_Y335]	0.864	0.572	0.861	0.59	0.984	0.475	0.553	1.14	0.559	0.511	0.542	0.499	0.632	0.495	0.666	0.722
FADIAYIFRHG [PAH_Y166_N167I_YF]	0.659	0.796	0.756	0.715	0.908	0.458	0.487	1.03	0.507	0.637	0.449	0.508	0.626	0.415	0.579	0.97
FADIAYSFRHG [PAH_Y166_N167S_YF]	0.673	1.15	0.749	0.344	0.62	0.33	0.383	0.674	0.393	0.313	0.44	0.443	0.491	0.64	0.463	0.422
FCRHNYGAVES [HLA-DRB1_Y112_V114A_YF]	1.05	0.816	1	0.674	0.628	0.439	0.555	0.826	0.42	0.471	0.441	0.359	0.604	0.527	0.83	0.856
FDDDDYDMDFV [BLM_Y296_T298M]	0.485	0.606	0.795	0.761	1.29	0.438	0.612	1.23	0.561	0.55	0.56	0.613	0.815	0.57	0.68	0.945
FDKEFYSVHNK [MET_Y1235_YF]	0.543	0.841	0.917	0.432	0.806	0.721	0.638	0.947	0.561	0.528	0.803	0.479	0.717	0.641	0.959	0.866
FDKPVYQKTTE [LDLR_Y828_N825K]	0.563	0.557	0.811	0.452	0.684	0.473	0.475	0.739	0.451	0.518	0.436	0.472	0.57	0.506	0.606	0.691
FEDALYTVLHR [UNC13D_Y61_YF]	0.521	0.812	0.85	16	2.96	9.68	13.8	1.79	11.4	2.49	9.35	9.12	2.38	7.03	5.92	1.4
FEEVVYQAMEE [TACC3_Y684]	0.504	0.883	0.755	0.838	1.86	0.744	0.737	1.54	1.21	0.621	1.74	2.12	0.955	3.34	1.62	1.35
FENGEYIVRQG [PRKG1_Y247_I249V_YF]	0.637	0.552	1.06	0.612	0.888	0.39	0.641	0.962	0.523	0.437	0.551	0.468	0.922	0.43	0.646	0.685
FETNVYVDKNL [PTCHD3_Y688_K685T]	0.693	0.656	0.968	0.546	0.996	0.411	0.539	0.938	0.482	0.436	0.578	0.54	0.623	0.36	1.01	0.53
FFRDGHMPRQF [GSS_Y270_Y270H_YF]	0.494	0.611	0.741	0.367	0.472	0.324	0.363	0.612	0.355	0.392	0.357	0.374	0.487	0.365	0.505	0.491

Sequence	SH2 binding enrichment (c-Src SH2)	SH2 binding enrichment (SHP2-C SH2)	SH2 binding enrichment (Grb2 SH2)	phosphorylation enrichment (EPHB1)	phosphorylation enrichment (AncSZ)	phosphorylation enrichment (MERTK)	phosphorylation enrichment (EPHB2)	phosphorylation enrichment (Fes)	phosphorylation enrichment (Fer (mouse))	phosphorylation enrichment (FGFR1)	phosphorylation enrichment (Hck)	phosphorylation enrichment (Fyn)	phosphorylation enrichment (FGFR3)	phosphorylation enrichment (c-Src)	phosphorylation enrichment (c-Abl (mouse))	phosphorylation enrichment (Jak2)
FFRKVYHLASV [RBL1_Y796_YF]	0.667	0.721	0.979	0.439	0.697	0.36	0.415	0.781	0.374	0.46	0.337	0.491	0.545	0.503	0.581	0.713
FGAHNHHPLPV [OAT_Y55_Y55H_YF]	0.818	1.14	1.03	0.393	0.58	0.496	0.54	0.636	0.505	0.386	0.457	0.369	0.694	0.477	0.579	0.583
FGGLRYGFGGL [KRTAP20-2_Y13_V17G_YF]	0.601	0.762	0.903	0.445	0.739	0.37	0.448	1.08	0.431	0.672	0.465	0.389	0.536	0.379	0.553	0.664
FGMSTYITRED [FNDC3B_Y180_YF]	0.563	0.745	0.802	0.776	0.961	0.437	0.45	1.11	0.533	0.581	0.743	0.676	0.676	0.692	0.693	0.95
FGSRLYKFAFK [FANCD2_Y458_L456R_YF]	0.568	0.583	0.877	0.354	0.571	0.406	0.557	0.651	0.311	0.399	0.439	0.433	0.484	0.515	0.456	0.582
FHLGKYLQEVL [KLB_Y910_Y906H_YF]	0.49	0.935	0.706	0.415	1.58	0.428	0.514	1.52	0.48	0.415	0.591	0.346	0.788	0.491	1.01	1.36
FHLLPYTIRAM [PARS2_Y93_V95I_YF]	1.55	1.62	1.66	0.504	0.825	0.373	0.588	0.972	0.454	0.547	0.541	0.5	0.533	1.02	0.621	0.708
FKDFFYCWNTF [AICDA_Y146_YF]	0.423	0.631	0.696	0.862	1.87	2.55	0.804	1.93	1.41	0.749	0.624	0.618	1.09	1.25	1.19	1.73
FKEQGYHRLPP [RIN1_Y681_YF]	0.742	0.77	0.94	0.561	0.441	0.377	0.298	0.679	0.363	0.58	0.456	0.457	0.528	0.37	0.345	0.877
FKEVVYQAMEE [TACC3_Y684_E680K]	0.918	0.994	0.774	1.06	1.55	1.62	0.814	1.05	0.829	0.771	1.66	2.37	0.884	2.88	1.11	1.04
FLNSSYINIST [IL23R_Y178_T175N_YF]	4.35	1.69	25	0.338	0.652	0.415	0.368	0.746	0.367	0.464	0.471	0.438	0.676	0.317	0.383	0.663
FLTLHYDAKPQ [ANG_Y38_Q36L]	0.653	0.844	0.783	0.505	0.912	0.301	0.426	0.983	0.328	0.532	0.462	0.449	0.575	0.312	0.501	0.669
FMCKVYSDPQP [FGFR1_Y280]	0.439	0.511	0.733	0.752	1.41	0.425	0.701	1.64	0.591	0.543	0.578	0.516	0.863	0.664	0.99	1.3
FMKEPYIQSRF [HIPK4_Y175_V171M_YF]	0.57	0.687	0.964	0.257	0.54	0.452	0.412	0.643	0.275	0.372	0.393	0.332	0.449	0.474	0.548	0.807
FMYKVYSDPQP [FGFR1_Y280_C277Y]	0.768	0.854	0.8	0.778	1.03	0.5	0.799	1.16	0.532	0.461	0.569	0.526	0.642	0.495	0.521	0.819
FNSLPYQVPTS [CALCOCO2_Y358]	0.843	0.871	1.12	0.464	0.942	1.34	0.504	0.63	1.36	0.431	0.56	0.467	0.578	0.561	2.56	0.611
